Paper PMC9482650, “Quantitative fragmentomics allow affinity mapping of interactomes” (Nature Communications, 2022)

How the values were obtained:
Test in all cases: holdup assay
Parameters in all cases: key: below the threshold = too weak to quantify, mostly under pKd 3.1 to 4
Conditions in all cases: plain residues with an end cap or a label only (N-terminal biotin on a linker: ado-ado)
APBA3_1, O96018 = molecular target: T1, APBA3_1, O96018
T1 sequence (O96018 389-490, limits assumed, looked up): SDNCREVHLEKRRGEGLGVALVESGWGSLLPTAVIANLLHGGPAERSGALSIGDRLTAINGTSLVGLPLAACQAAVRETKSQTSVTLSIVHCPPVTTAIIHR

ARHGEF11, O15085 = molecular target: T2, ARHGEF11, O15085
T2 sequence (O15085 42-136, limits assumed, looked up): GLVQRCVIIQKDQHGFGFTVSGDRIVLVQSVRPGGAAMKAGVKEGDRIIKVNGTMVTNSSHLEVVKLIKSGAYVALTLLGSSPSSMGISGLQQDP

CASK, O14936 = molecular target: CASK, O14936
DFNB31_2, Q9P202 = molecular target: T3, DFNB31_2, Q9P202
T3 sequence (Q9P202 274-371, limits assumed, looked up): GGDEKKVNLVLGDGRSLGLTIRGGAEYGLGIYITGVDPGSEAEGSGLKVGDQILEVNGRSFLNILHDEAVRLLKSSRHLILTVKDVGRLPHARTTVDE

DFNB31_3, Q9P202 = molecular target: T4, DFNB31_3, Q9P202
T4 sequence (Q9P202 811-907, limits assumed, looked up): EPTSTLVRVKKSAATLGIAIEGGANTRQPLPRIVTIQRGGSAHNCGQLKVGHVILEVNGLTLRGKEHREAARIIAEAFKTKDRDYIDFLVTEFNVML

DLG1_1, Q12959 = molecular target: DLG1_1, Q12959
DLG1_2, Q12959 = molecular target: DLG1_2, Q12959
GIPC2, Q8TF65 = molecular target: GIPC2, Q8TF65
GOPC, Q9HD26 = molecular target: GOPC, Q9HD26
HTRA3, P83110 = molecular target: T5, HTRA3, P83110
T5 sequence (P83110 354-453, limits assumed, looked up): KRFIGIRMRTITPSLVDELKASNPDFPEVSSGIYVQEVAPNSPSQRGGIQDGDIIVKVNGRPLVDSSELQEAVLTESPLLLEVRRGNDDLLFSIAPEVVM

IL16_3, Q14005 = molecular target: IL16_3, Q14005
Inadl_10, Q8NI35 = molecular target: Inadl_10, Q8NI35
Inadl_4, Q8NI35 = molecular target: Inadl_4, Q8NI35
LNX2_2, Q8N448 = molecular target: T6, LNX2_2, Q8N448
T6 sequence (Q8N448 334-432, limits assumed, looked up): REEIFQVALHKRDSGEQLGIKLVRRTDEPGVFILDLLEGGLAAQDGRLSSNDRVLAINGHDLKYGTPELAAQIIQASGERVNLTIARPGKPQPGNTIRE

MAGI2_6, Q86UL8 = molecular target: MAGI2_6, Q86UL8
MPDZ_12, O75970 = molecular target: T7, MPDZ_12, O75970
T7 sequence (O75970 1857-1958, limits assumed, looked up): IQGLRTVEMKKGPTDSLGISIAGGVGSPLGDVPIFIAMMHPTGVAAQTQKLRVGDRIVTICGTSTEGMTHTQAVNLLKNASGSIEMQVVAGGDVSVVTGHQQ

NHERF4_2, Q86UT5 = molecular target: NHERF4_2, Q86UT5
NOS1, P29475 = molecular target: NOS1, P29475
PICK1, Q9NRD5 = molecular target: PICK1, Q9NRD5
PTPN3, P26045 = molecular target: PTPN3, P26045
RAPGEF6, Q8TEU7 = molecular target: T8, RAPGEF6, Q8TEU7
T8 sequence (Q8TEU7 525-625, limits assumed, looked up): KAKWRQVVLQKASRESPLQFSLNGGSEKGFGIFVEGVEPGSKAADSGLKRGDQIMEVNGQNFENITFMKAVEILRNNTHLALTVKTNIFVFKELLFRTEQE

SCRIB_1, Q14160 = molecular target: SCRIB_1, Q14160
SNTB1, Q13884 = molecular target: T9, SNTB1, Q13884
T9 sequence (Q13884 107-205, limits assumed, looked up): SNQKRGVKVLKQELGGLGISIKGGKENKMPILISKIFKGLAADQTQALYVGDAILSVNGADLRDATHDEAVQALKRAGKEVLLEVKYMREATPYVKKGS

SNTG1, Q9NSN8 = molecular target: T10, SNTG1, Q9NSN8
T10 sequence (Q9NSN8 52-150, limits assumed, looked up): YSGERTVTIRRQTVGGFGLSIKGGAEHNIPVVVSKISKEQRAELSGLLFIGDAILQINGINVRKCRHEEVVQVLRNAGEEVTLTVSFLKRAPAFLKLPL

SNX27, Q96L92 = molecular target: SNX27, Q96L92
TJP1_3, Q07157 = molecular target: TJP1_3, Q07157
TJP3_3, O95049 = molecular target: T11, TJP3_3, O95049
T11 sequence (O95049 375-456, limits assumed, looked up): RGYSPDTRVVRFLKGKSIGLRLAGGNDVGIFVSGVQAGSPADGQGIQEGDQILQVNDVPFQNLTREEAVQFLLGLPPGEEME

Inadl_4, Q8NI35, sequence (Q8NI35 547-651): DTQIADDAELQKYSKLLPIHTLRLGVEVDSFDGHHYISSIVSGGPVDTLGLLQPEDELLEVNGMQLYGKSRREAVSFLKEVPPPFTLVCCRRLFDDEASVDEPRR
TJP1_3, Q07157, sequence (Q07157 416-512): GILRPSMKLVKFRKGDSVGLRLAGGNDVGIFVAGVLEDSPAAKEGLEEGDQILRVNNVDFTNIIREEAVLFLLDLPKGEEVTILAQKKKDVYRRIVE
Inadl_10, Q8NI35, sequence (Q8NI35 1673-1763): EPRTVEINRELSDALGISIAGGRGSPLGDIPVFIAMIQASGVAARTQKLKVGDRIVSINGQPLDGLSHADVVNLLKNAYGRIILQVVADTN
GIPC2, Q8TF65, sequence (Q8TF65 112-203): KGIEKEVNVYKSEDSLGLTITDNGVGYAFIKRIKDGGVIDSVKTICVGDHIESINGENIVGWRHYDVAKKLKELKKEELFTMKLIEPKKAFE
CASK, O14936, sequence (O14936 487-570): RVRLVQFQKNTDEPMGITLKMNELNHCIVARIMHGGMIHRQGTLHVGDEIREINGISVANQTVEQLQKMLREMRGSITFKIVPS
NOS1, P29475, sequence (P29475 9-101): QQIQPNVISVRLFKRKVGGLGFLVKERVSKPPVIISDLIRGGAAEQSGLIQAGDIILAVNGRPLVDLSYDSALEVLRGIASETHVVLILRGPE
PTPN3, P26045, sequence (P26045 505-587): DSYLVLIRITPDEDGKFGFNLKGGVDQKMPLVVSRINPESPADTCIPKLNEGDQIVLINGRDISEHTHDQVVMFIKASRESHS
NHERF4_2, Q86UT5, sequence (Q86UT5 220-308): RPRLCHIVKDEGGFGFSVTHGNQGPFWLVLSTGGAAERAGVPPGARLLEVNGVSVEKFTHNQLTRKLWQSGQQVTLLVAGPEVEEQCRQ
MAGI2_6, Q86UL8, sequence (Q86UL8 1141-1229): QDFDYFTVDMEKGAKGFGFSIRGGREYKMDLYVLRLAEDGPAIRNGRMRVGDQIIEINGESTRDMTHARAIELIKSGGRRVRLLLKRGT
SCRIB_1, Q14160, sequence (Q14160 718-814): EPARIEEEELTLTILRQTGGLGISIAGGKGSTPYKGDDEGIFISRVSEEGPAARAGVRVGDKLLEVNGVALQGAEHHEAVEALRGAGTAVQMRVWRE
IL16_3, Q14005, sequence (Q14005 1107-1207): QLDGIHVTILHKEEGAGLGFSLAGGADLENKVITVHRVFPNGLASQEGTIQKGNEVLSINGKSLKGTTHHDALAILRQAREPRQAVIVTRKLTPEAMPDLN
PICK1, Q9NRD5, sequence (Q9NRD5 17-115): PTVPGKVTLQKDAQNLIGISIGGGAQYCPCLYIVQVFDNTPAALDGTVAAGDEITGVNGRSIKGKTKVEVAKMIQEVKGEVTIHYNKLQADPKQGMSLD

Row | Binder | pKd (APBA3_1, O96018) | pKd (ARHGEF11, O15085) | pKd (CASK, O14936) | pKd (DFNB31_2, Q9P202) | pKd (DFNB31_3, Q9P202) | pKd (DLG1_1, Q12959) | pKd (DLG1_2, Q12959) | pKd (GIPC2, Q8TF65) | pKd (GOPC, Q9HD26) | pKd (HTRA3, P83110) | pKd (IL16_3, Q14005) | pKd (Inadl_10, Q8NI35) | pKd (Inadl_4, Q8NI35) | pKd (LNX2_2, Q8N448) | pKd (MAGI2_6, Q86UL8) | pKd (MPDZ_12, O75970) | pKd (NHERF4_2, Q86UT5) | pKd (NOS1, P29475) | pKd (PICK1, Q9NRD5) | pKd (PTPN3, P26045) | also measured
1 | EPAKETTTNV [SLC2A3, P11169] | below the threshold | 4 | below the threshold | below the threshold | 4.05 | 3.94 | 4.42 | below the threshold | 3.73 | below the threshold | below the threshold | below the threshold | below the threshold | 4.22 | 3.97 | below the threshold | 3.56 | below the threshold | below the threshold | 4.49 | pKd (RAPGEF6, Q8TEU7): below the threshold; pKd (SCRIB_1, Q14160): below the threshold; pKd (SNTB1, Q13884): 4.57; pKd (SNTG1, Q9NSN8): 4.06; pKd (SNX27, Q96L92): 4.95; pKd (TJP1_3, Q07157): below the threshold; pKd (TJP3_3, O95049): below the threshold
2 | PGKKPEDSRV [SLCO2B1, O94956] | below the threshold | 3.48 | below the threshold | below the threshold | below the threshold | 3.62 | 3.78 | below the threshold | below the threshold | below the threshold | below the threshold | below the threshold | below the threshold | below the threshold | below the threshold | below the threshold | below the threshold | below the threshold | below the threshold | below the threshold | pKd (RAPGEF6, Q8TEU7): below the threshold; pKd (SCRIB_1, Q14160): below the threshold; pKd (SNTB1, Q13884): 3.94; pKd (SNTG1, Q9NSN8): below the threshold; pKd (SNX27, Q96L92): 4.43; pKd (TJP1_3, Q07157): below the threshold; pKd (TJP3_3, O95049): below the threshold
3 | MLPANYVEAI [NEB, P20929] | below the threshold | below the threshold | below the threshold | below the threshold | below the threshold | below the threshold | below the threshold | below the threshold | below the threshold | below the threshold | below the threshold | below the threshold | below the threshold | below the threshold | below the threshold | below the threshold | below the threshold | 3.52 | 3.94 | 3.64 | pKd (RAPGEF6, Q8TEU7): below the threshold; pKd (SCRIB_1, Q14160): below the threshold; pKd (SNTB1, Q13884): below the threshold; pKd (SNTG1, Q9NSN8): below the threshold; pKd (SNX27, Q96L92): below the threshold; pKd (TJP1_3, Q07157): below the threshold; pKd (TJP3_3, O95049): below the threshold
4 | TKDKVQETQI [LRRC4, Q9HBW1] | below the threshold | 3.73 | below the threshold | 3.71 | 4.11 | 4.42 | 5.03 | 3.68 | 4.47 | below the threshold | below the threshold | below the threshold | below the threshold | below the threshold | 3.97 | below the threshold | below the threshold | 4.02 | below the threshold | 5.05 | pKd (RAPGEF6, Q8TEU7): below the threshold; pKd (SCRIB_1, Q14160): 5.19; pKd (SNTB1, Q13884): 5.08; pKd (SNTG1, Q9NSN8): 4.97; pKd (SNX27, Q96L92): 5.5; pKd (TJP1_3, Q07157): below the threshold; pKd (TJP3_3, O95049): below the threshold
5 | ADEMICITTL [CACNA1D, Q01668] | below the threshold | 5.77 | below the threshold | below the threshold | 4.89 | 3.91 | 4.06 | below the threshold | 4.88 | below the threshold | below the threshold | 4.42 | below the threshold | 3.93 | 4.85 | 4.02 | below the threshold | 3.58 | 4.14 | 4.62 | pKd (RAPGEF6, Q8TEU7): 3.65; pKd (SCRIB_1, Q14160): 4.89; pKd (SNTB1, Q13884): 4.84; pKd (SNTG1, Q9NSN8): 4.32; pKd (SNX27, Q96L92): 5.51; pKd (TJP1_3, Q07157): below the threshold; pKd (TJP3_3, O95049): below the threshold
